{"source": "patent US6620914", "about": "“Transcription factor islet-brain 1 (IB1)” (Gerard)", "binders": {"B1": {"name": "GTII (dsDNA)", "DNA 1": "GTAAAGGGTGTATTGATTGGATTACCATCAATACTCAGCTTCT", "DNA 2": "AGAAGCTGAGTATTGATGGTAATCCAATCAATACACCCTTTAC"}}, "target": "T1, IB1 280-714 (Rattus, UniProt Q9R237 SEQ:280-714)", "T1 sequence": "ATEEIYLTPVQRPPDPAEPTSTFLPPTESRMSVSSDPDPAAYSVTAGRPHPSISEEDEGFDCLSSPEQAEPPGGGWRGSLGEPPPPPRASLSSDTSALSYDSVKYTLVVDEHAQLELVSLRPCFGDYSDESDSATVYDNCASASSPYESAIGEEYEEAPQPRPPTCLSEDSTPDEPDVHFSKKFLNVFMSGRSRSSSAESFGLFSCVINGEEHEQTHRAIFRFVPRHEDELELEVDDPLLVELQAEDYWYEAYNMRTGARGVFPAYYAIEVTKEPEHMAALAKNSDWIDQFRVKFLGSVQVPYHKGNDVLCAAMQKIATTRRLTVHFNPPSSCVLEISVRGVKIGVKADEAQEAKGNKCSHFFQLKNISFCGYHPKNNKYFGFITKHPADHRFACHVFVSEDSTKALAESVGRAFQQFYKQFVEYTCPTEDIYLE", "test": "SouthWestern", "conditions": "tags: bacterially produced; label: 32P", "data": [{"binder": "B1", "values": [{"measurement": "binding result", "value": "binds"}]}]}
